Experimental data from PMC11929599.

Legend:
Test in all cases: two-hybrid
[1] = target: SePdx D28A fused to T25 (pKT25‐SePdx D28A) (Synechococcus elongatus PCC 7942)
[2] = target: SePdx Y31A fused to T25 (pKT25‐SePdx Y31A) (Synechococcus elongatus PCC 7942)
[3] = target: SePdx R96A fused to T25 (pKT25‐SePdx R96A) (Synechococcus elongatus PCC 7942)
[4] = target: SePdx Q214A fused to T25 (pKT25‐SePdx Q214A) (Synechococcus elongatus PCC 7942)
[5] = target: SePdx R189A fused to T25 (pKT25‐SePdx R189A) (Synechococcus elongatus PCC 7942)
[6] = target: SePdx G299A fused to T25 (pKT25‐SePdx G299A) (Synechococcus elongatus PCC 7942)
[7] = target: SePdx Y144A fused to T25 (pKT25‐SePdx Y144A) (Synechococcus elongatus PCC 7942)
[8] = target: SePdx T5A fused to T25 (pKT25‐SePdx T5A) (Synechococcus elongatus PCC 7942)

CpcA1 fused to T18C (pUT18C) (from UniProt P13530 1-163) (natural protein)
decrease of β‐galactosidase activity against WT SePdx [1]: 67.6%
decrease of β‐galactosidase activity against WT SePdx [2]: 46.3%
decrease of β‐galactosidase activity against WT SePdx [3]: 65.1%
decrease of β‐galactosidase activity against WT SePdx [4]: 40.3%
decrease of β‐galactosidase activity against WT SePdx [5]: 60.8%

PSI core protein PsaE fused to T18C (pUT18C) (from UniProt Q31NL7 1-75) (natural protein)
decrease of β‐galactosidase activity against WT SePdx [6]: 12.2%
decrease of β‐galactosidase activity against WT SePdx [7]: 27.2%
increase of β‐galactosidase activity against WT SePdx [8]: 3.19%
